Experimental data as given in doi:10.1101/2020.05.11.089193 (bioRxiv, 2020).
Like-named read-outs stand apart in the source and are kept apart here.

B1: Flavobacterium johnsoniae GldL (natural protein, UniProt Q5EGM4 1-215, looked up)
chain: MALLSKKVMNFAYGMGAAVVIVGALFKITHFEIGPLTGTVMLSIGLLTEALIFALSAFEPVEDELDWTLVYPELANGQARKKEAKAETATDAQGLLSQKLDAMLKEAKVDGELMASLGNSIKNFEGAAKAISPTVDSIAGQKKYAEEMSMAAAQMESLNSLYKVQLESASRNAQANSEIAENAAKLKEQMASMTANIASLNSVYGGMLSAMSNKG
B2: Flavobacterium johnsoniae GldM C-terminally truncated after the first folded periplasmic domain (first 225 amino acids) (domain or fragment, UniProt Q5EGM3 1-225, looked up)
chain: MAGGKLTPRQKMINLMYLVFIAMLAMNVSKEVISAFGLMNEKFEAANTSSVTTNESLLTSLDQKAAEAKGEFAKAAETAHKVQAASKEFYDYIGTLKTQAVKGFEVDKETGKMPYEAMDRGDNIDDWFTGDGYTKKGNEIIAKIEKYKSDIKAALGTDKKYAGIISEVEKKFDVSDVKNKEGIKEKYLAYHFKGFPAIASAAKLSAWQNDVKKTEADVYNSALGK
B3: Porphyromonas gingivalis ATCC 33277 PorM (natural protein, UniProt B2RLE8 1-516, looked up)
chain: MAVGSNGNANRQKMINLMYLVFIAMMALNVSSEVLDGFDKVDKSLTSSIDGSDKRNNLVLSELNTAYRTNPEKVKVWYERSLVLQKEADSLCTFIDDLKLAIARESDGKDAKVNDIRRKDNLDASSVVMLNPINGKGSTLRKEVDKFRELVATLMTDKAKLKLIEQALNTESGTKGKSWESSLFENMPTVAAITLLTKLQSDVRYAQGEVLADLVKSVDVGDYRVNSITAQVIPQSQIVMSGDTYKANIVLSSVDTTQRPDVFVNGKLLSPENMGLFTATAGAPGTYPVKGYIEMMGNDGVKIRRDFESEYFVTEPMASVAPTMMNVLYAGIDNPINIAVPGVAQQNVSATINNGTLTRRGNLWIARPTKVGSEAIISVTAQSGGRTIQMAKTTLRVRALPDPLPYIEYKDVQGNTKRFKGGRLGKREILAAGGIKAALDDDLLEVNYTVVKFQLVFYDSMGNSIPEVSDGASFSERQKRQIQNLGKGKRFYVTEVIARGPDGIERKIPAIEVIVN

Columns and labels:
[1] = target: the molecule itself; assay: cryo-EM structure
[2] = target: the molecule itself; assay: cryo-EM structure; remark: listed apart in the source

Row | Protein | stoichiometry N [1] | stoichiometry N [2]
1 | B1 | 5 | –
2 | B2 | 2 | –
3 | B3 | – | 2
